Experimental data reported in the supplement of paper PMC9170038.

System: K4 kissing-loop RNA reporter
Experiment: apparent KD of K4 kissing-loop reporter; higher = weaker reporter binding
Conditions: Eterna round: R107
Procedure: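 RNA-MaP round R107: designed RNA switches with theophylline, tryptophan, arginine or FMN aptamers are transcribed on-chip within common flanks. They are titrated with a labelled K4 kissing-loop RNA reporter in RNA-MaP buffer (100 mM Tris pH 7.5, 80 mM KCl, 4 mM MgCl2), without ligand or with the indicated ligand. Median apparent KD per design.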

[1] = input ligand: theophylline 20 uM
[2] = input ligand: tryptophan 2.4 mM
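Further: bound reporter read as fluorescence of individual clusters on recovered sequencing chips by microscopy, with normalized cluster intensities fitted with a binding model.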

Sequence	apparent KD of K4 kissing-loop reporter (input ligand: FMN 200 uM) [nM]	apparent KD of K4 kissing-loop reporter (input ligand: arginine 13.2 mM) [nM]	apparent KD of K4 kissing-loop reporter (input ligand: none) [nM]	apparent KD of K4 kissing-loop reporter [1] [nM]	apparent KD of K4 kissing-loop reporter [2] [nM]
CCUGCAGCUGUUACCGAGGGAUGCUACGGACGAGGACCGGUACGGCCGCCACUCGCCAGUGAUGUUGGUGAGGGAGGACGUUCCU [Georte]	100	106	150	172	148
CGCCGAUUGUCGGAGUGAUGUUCCCGGGAUACCAGCACGUCGUCAUGCCCUUGGCAGCCCAACAGACCAUUUUAAAGGCUAGCUG [theeternabot_sameState_KL_Theo_A_35]	330	97.8	122	221	158
AGCUCAGAGUGACUCGAUAAGAGUCACAAACGAGGACCGGUACGGCCGCCACUCGAAAUAAUGAGAGUGAUGUUCUCGCUGAGCA [#SwitchBubble 2 #StaticStem #K4Late]	221	98.6	89	145	793
GAGGUGCUGAUGCGGUGGCCGGUGGUCGUGCGAGGACCGGUACGGCCGCCACUCGCAUGAGUGAUGUUCAUGUGUCGUCGUCGUC [whbob_EX_Tryp_A_t3]	172	104	132	117	172
UGUCAUUGGUCUGAUACCAGUCCCUUGGCAGCCUAAAGGAGUGAUGUUCCAAGGAUACCAGACCCUUGGCAGCAGACCGAUGACU [TheoBS 28 #DoubleAptamer #SwitchBubble]	351	312	360	260	354
AGCCACGACGCGGCCGCCACUGCCAUUAAACGUAAGGCAAAUCUAAUCUUCGAGUGAUGUUCGGGCAGGACCGGGCGGAGACUUG [theeternabot_sameState_KL_Trp_B_18]	636	300	478	772	371
AGAGAUAAGGCGGCCGCCACUAAGAUGAAACUAACGGUCAAGUGAUGUUUGCGGUUACAGUUCAGUAGGACCGGGCCGAGUAAAU [theeternabot_sameState_KL_Trp_B_47]	512	403	407	412	357
ACGUAGUUCUAGGAUACCAGCCAAGGUGCCAGGACAAAAGUCCUGGCAGCCAGUGAUGUUGGCCCUUGGCAGCCUAGAACUACGA [Omei KL Theo B Exc B v7]	164	145	154	122	137
GAAUAAUAAGUAGCAGUGAUGUUGCUACUACGAGGACCGGUACGGCCGCCACUCGAAUACGAGUGGACACUGCUACUACCACUCG [(H1)-(H2)-(Trp1)-(Trp2)-(T)'-(H)'-(T)''_Design8]	121	118	121	122	170
CGUUCAUCCUAGGCGUGAGUGAUGUUUACCCGAGGACCGGUACGGCCGCCACUCGUAUGGCGAGAGUUUAGCCAUUUCCAAUAUA [theeternabot_exclusion_KL_Trp_A_17]	465	403	503	505	398
GGCUCCUACGCAGGAUAUAGUAGCCGAGAGUGAUGUUCUACGGCGUUUGCCGAUUUAGUCACAGAUCUAGAAGGGUGUAGGAGCC [XFMN-B PiClone]	1040	660	1130	756	1000
UAUAUAGUGAUGUUAUAUGGGAAGGAGUUACGAGGACCGGUACGGCCGCCACUCGAAACGAGUGAGGAUUUGGGAGAUUGGGUUU [SSTryptA.S]	333	211	206	208	232
ACCUACCAUUAGUGAUGUUAAUGGACGGAAGGAGCGCAGAUAUCUGCAGGUAGGUCGCCGAAGGCUAGACAUUGUCUAGCCAUUA [AK1.1 SS Arginine A]	227	178	197	163	183
UCCUACGAGGUAACGUGGAUAUCUCGUUGCAAGGAUAUCUGGAAACAGAGAAGGUGCAACAUUAUCGGCAGUGAUGUUGCUGACC	711	242	482	385	280
ACGAUUUACAGAAGGAGCGUGUAUUUAACUACAAUUAUCAUAGCGAGUGAUGUUCGUUAUACACAGGUAGGUCGCUGUAUAUCGA [JR_ExcArginiB_Sub012]	364	367	356	451	397
GGUAGCAUGGCGGCCGCCACUACUGACAGCUGUCUGUUCUGGGUACCAGGGAGUGAUGUUCCCGGUAGGACCGGGCCAUGCUACC	135	106	114	112	266
CGCUGGGCGAGUGAUGUUCGCUCACGUGAUACCAGUGCAAUCCAACACCCUUGGCAGCACGCGGGCAGUGAUGUUGUCCUUAGUG [Exclusion Theophylline A GF12]	160	149	157	143	127
CGUUUCUCUGUCGAUACCAGCUUCAGUUGGCGGCCAGUGAUGUUGGUAUCGCCGAUGCCAAGCCCUUGGCAGCGACAUGAGACCC [Gezausin]	169	163	193	128	166
ACGGUUUCCACGGCCGCCACUUGCGCAUUAGAUCUUACCCUAGGAGUGAUGUUCCAUACAAGUACAAGGACCGGGUGGGACAUAA [theeternabot_sameState_KL_Trp_B_28]	257	369	375	342	239
CCGGCCCAGCCGGAUACCAGUGCGCCGCAGGGAACGGCGGGCCCAGAGUGAUGUUCGGGACACCCUUGGCAGCCGCCUGGGUCGU [#2 Same State - Theophylline B Attempt #28 (HarryS)]	414	262	365	258	274

Sequence	apparent KD of K4 kissing-loop reporter (input ligand: FMN 200 uM) [nM]	apparent KD of K4 kissing-loop reporter (input ligand: arginine 13.2 mM) [nM]	apparent KD of K4 kissing-loop reporter (input ligand: none) [nM]	apparent KD of K4 kissing-loop reporter [1] [nM]	apparent KD of K4 kissing-loop reporter [2] [nM]
CCAGGACGAUGAGGAUGAUGAAUUACUGAAGGAGCGCAUAUGGUUGCAGGUAGGUCGCGGUGAACAAGUAUAGUGAUGUUAUACC [SSArgA.U]	327	282	340	515	348
AAUAAGGUCGCCGAUACCAGCGCAGGCAGAGCAAAGCUCUGCCUAGUAGUGAUGUUACUGCGCCCUUGGCAGCGGUGGCACGACC [Omei KL Theo B SS C v4]	863	824	930	397	798
GGUAGCAUGGCGGCCGCCACUUUAUACUCGGUCGUUGGCGUCGUAAGUGAUGUUUACAUUCGCAAAAGGACCGGGCCAUGCUACC	97.8	56.6	81.2	123	133
CCUUCUCAUUUCCGUUAUCAUUGCCUUAGGAAGGAUAUCAUUAUUUUGAGAAGGUCCGUGGUCUAUUUUCCGAGUGAUGUUUGGU [theeternabot_exclusion_KL_FMN_A_45]	273	226	311	277	248
GGGUAUUACGGAGGAUAUGCACUGAGGAGGAGAAUAUAGUGAUGUUAUAUAAGAGGAAGGAGAAGAGUAGAAGGCCGUGGUAUUG [SSFMNB.H]	247	217	280	277	190
ACGCAUGGGCAAGGAUAUGGUAGUGAUGUUACCUUUGCGGUGCCGGGAACGAAUGACGGUCAUGCGCCAGAAGGUGCUCAGACAA [theeternabot_exclusion_KL_FMN_B_23]	203	180	178	250	183
AAAUAGAUCAGUCACCCAGUGAUGUUGGAAGGAGCGUGCGAAAGCACAGGUAGGUCGCCAAAAUAAAAGUGGCUGAUCAAAAUAA [#SwitchBubble 5 #K4Early]	336	300	389	526	226
UGAUAGGACAGAAGGAGCGGAGCUGGUCAAAGACCAGCAAUACGUUGAAAAGGAGUGAUGUUCCAGGUAGGUCGCUGUCCUAUCU [ArgBX 27 #SwitchBubble #StaticStem]	93.5	103	106	133	85.2
AAGAGCCUCAAGAGGCAGUAUCUGCCUCAACGAGGACCGGUACGGCCGCCACUCGAAUAAUAGAGUGAUGUUCUAAGAGGCUCAA [AK8 SS Tryptophan A]	710	558	586	548	487
CAGCCCAAAUGGCGAGAAGUGUUCCUUAGUCGAGGACCGGUACGGCCGCCACUCGCUCUAAACAUUAGGAGUGAUGUUCCAUUAG	168	258	215	335	90.6
AACGUUUUGAGAAGGAGCGCGAUAAGCAGUGAUGUUGCUAAAAUUCUAUUUCAAUUUAAUACGCAGGUAGGUCGCUCAAUACGUA [JR_SSArginiB_Sub020]	143	136	138	156	118
AACAUUUUCAGAAGGAGCGUGAAUUAUUCAUAAUUAUAUUAUACGAGUGAUGUUCGUAUUUCACAGGUAGGUCGCUGAUAUAGUA [#02 K4 Arginine B Same State]	94.5	127	104	121	93.1
CUUCGAUUAACGGAUACCAGUCACUUGGGAGCCACACACAAGUGAGUGAUGUUCACUUGUGACCCUUGGCAGCCGUUAGUCGAAG [#05 K4 Theophylline B Exclusion]	106	85	99.4	157	97.9
AAGAGGUAGGCGGCCGCCACUUGUUGUGAACACAUACGAGCCAGUGAUGUUGGUAUUGUGGGCGGAAGGACCGGGCCUACCUGAA [Exclusion - Tryptophan B (Freestyle 20)]	317	304	320	328	386
UAUAGAGUGACGGCCGCCACUAUUGUGAUUUAAUUGUUUGAGUGAUGUUUUGAUGUUUGAUUUUGUAGGACCGGGUUAUAUGUUA [zdzzmullin]	959	718	987	793	788
GCAUCCUAGUCGGCCGCCACUGACAUGAGUGAUGUUCAUGUUCGUCAGUGAUGUUGACGUUGUUACAGGACCGGGACUAGGAUGC [KL-SSTryp-B8 Brourdwalk4 #Double KL]	169	143	165	150	119
GCCAGAGCGCGAAGGAGCGCCCUGACAGGUUGCUGCCGUGGGCAGUGAUGUUGCUCAGUCCGGCAGGUAGGUCGCGUGCUCUGGC	222	165	193	196	174
GCGCGGCAGGCGGCCGCCACUCUGACGAGCCACAGUGAUGUUGUGGUCGGAGAAACGUCUUCAUAGAGGACCGGGUUUGUUGUUC [Same State Typtophan A GF 25]	215	186	226	189	177
AUUUUGGUUUAGAGUGAUGUUCCUUGUAUUCGAGGACCGGUACGGCCGCCACUCGAAUAGAAAAGAAAAGAAAUGUUUGAUGUUU [BDazzled - #6 SS Tryptophan A]	551	193	537	274	393
